{"source": "paper PMC4822050", "about": "“Hemi-methylated DNA opens a closed conformation of UHRF1 to facilitate its histone recognition” (Nature Communications, 2016)", "assay_in_all_cases": "ITC; 0.05 mM protein in the cell, 0.5 mM protein or peptide in the syringe, iTC200, 18 °C, 10 mM HEPES pH 8.0, 100 mM NaCl", "details_in_all_cases": "both partners purified", "key": {"[1]": {"biological_target": "T1, R295D/R296D mutant of full-length UHRF1 (human, UniProt Q96T88 1-793, R295D | R296D)", "T1 construct": "human UHRF1 (1–793)", "T1 sequence (looked up)": "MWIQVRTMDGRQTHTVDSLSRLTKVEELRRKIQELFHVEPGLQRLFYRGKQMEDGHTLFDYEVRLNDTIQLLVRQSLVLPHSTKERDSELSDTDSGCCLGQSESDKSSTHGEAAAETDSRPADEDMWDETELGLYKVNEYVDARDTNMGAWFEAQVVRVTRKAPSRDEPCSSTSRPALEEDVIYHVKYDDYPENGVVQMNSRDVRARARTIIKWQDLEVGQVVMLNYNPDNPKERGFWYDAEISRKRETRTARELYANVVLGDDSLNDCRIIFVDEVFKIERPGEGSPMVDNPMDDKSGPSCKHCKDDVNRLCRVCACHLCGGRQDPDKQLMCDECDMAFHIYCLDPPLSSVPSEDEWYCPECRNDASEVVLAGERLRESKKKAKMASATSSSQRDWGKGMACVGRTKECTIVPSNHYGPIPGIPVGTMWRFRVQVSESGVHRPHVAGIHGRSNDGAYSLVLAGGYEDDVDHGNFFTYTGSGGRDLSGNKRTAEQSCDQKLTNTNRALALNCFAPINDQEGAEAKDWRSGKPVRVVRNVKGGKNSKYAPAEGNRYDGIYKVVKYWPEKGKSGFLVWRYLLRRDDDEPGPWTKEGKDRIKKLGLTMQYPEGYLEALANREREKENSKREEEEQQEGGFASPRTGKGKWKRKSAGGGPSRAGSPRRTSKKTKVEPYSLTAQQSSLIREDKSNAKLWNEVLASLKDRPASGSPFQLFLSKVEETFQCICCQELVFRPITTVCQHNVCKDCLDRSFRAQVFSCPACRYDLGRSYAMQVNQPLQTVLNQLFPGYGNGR"}, "[2]": {"biological_target": "T2, full-length UHRF1 (residues 1–793) (human, UniProt Q96T88 1-793)", "T2 construct": "human UHRF1, residues 1–793; monomer by gel filtration; also called wild-type UHRF1; ICBP90", "T2 sequence (looked up)": "T1 sequence (looked up) with D295R, D296R"}, "[3]": {"biological_target": "T3, TTD–PHD of UHRF1 (residues 134–366) (human, UniProt Q96T88 134-366)", "T3 sequence (looked up)": "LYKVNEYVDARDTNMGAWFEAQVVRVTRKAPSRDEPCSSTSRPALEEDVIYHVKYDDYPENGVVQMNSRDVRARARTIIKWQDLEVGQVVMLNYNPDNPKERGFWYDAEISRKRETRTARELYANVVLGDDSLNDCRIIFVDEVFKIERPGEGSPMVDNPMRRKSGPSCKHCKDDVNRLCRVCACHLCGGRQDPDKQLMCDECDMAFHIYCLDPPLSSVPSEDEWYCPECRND"}, "[4]": {"biological_target": "T4, UHRF1^Δ627–674 (human, UniProt Q96T88 1-793, Δ627–674)", "T4 construct": "also called spacer deletion mutant", "T4 sequence (looked up)": "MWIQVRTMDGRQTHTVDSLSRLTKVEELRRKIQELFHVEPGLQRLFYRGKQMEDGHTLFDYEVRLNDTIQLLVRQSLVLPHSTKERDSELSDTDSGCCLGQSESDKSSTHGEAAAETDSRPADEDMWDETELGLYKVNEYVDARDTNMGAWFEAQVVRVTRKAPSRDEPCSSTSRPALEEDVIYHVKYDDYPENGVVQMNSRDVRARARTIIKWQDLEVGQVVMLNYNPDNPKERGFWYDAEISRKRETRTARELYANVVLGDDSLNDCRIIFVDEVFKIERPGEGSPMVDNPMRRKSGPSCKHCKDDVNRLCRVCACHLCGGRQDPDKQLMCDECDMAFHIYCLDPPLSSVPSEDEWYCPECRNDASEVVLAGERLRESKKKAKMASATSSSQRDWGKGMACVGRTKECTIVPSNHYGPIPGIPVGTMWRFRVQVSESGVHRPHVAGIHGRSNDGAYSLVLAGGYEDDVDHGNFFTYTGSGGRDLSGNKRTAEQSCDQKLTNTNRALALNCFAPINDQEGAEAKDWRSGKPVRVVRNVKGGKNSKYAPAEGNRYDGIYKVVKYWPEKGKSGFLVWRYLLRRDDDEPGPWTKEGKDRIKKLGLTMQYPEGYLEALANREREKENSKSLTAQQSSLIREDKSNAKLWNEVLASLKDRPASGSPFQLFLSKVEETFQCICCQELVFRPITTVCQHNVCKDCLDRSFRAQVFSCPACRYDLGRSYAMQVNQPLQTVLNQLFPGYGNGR"}}, "note": "Changes are numbered by the printed parent chain."}
{"binder": "ARTKQTARKSTGGKAPR (peptide, UniProt P68431 2-18, looked up, trimethyl-lysine at K9, histone H3, residues 1–17)", "note": "[H3K9me3 peptide (1–17)]", "values": [{"measurement": "fold lower binding affinity than wild type", "setting": "[1]", "value": 8, "unit": "fold"}, {"measurement": "Kd", "setting": "[2]", "value": 4.61, "unit": "µM"}, {"measurement": "Kd", "setting": "[3]", "value": 0.15, "unit": "µM"}, {"measurement": "fold increase in binding affinity against full-length UHRF1", "setting": "[4]", "value": 4, "unit": "fold"}]}
